US20250333541A1, “ANTIBODY, AND DRUG CONJUGATE AND USE THEREOF” (EVOPOINT BIOSCIENCES CO., LTD., priority 2022, published 2025)
Positions count from the first letter of the chain named.

How the values were obtained:
human TF-His [1] = biological target: T1, human TF-His (human, UniProt P13726 33-251); experiment: antigenic protein-based ELISA, after conjugation with B81 (TF antigen species not stated)
T1 construct: range 33-251; Recombinant extracellular segment expressed in HEK293-EBNA cells and purified on a nickel column; also called h.TF-His; h; TF-his; not shown: His tag from vector pTT5-His
Procedure: (§1) The ELISA plate was coated overnight with TF antigen (h.TF-His or c.TF-His antigen) in 50 mM carbonate coating buffer (CBS coating solution) at a coating concentration of 1 μg/mL in a volume of 100 μL at 4° C. The next day, the coating solution was removed, each well was washed once with 300 μL of PBS, and 100 μL of 2% BSA (Biotopped, A6020) in PBS was added to each well for blocking at 37° C. for 2 h. The test sample was subjected to a gradient dilution with 2% BSA in PBS to establish 11 concentration points. 100 μL of each of the samples obtained by the gradient dilution was added to the plate, and the plate was incubated at 37° C. for 2 h. The supernatant was removed, and each well was washed three times with 300 μL of PBST. 100 μL of HRP-conjugated secondary antibody in 2% BSA was added to each well, and the plate was incubated at 37° C. for 1 h. […] At the end of the incubation, the secondary antibody was removed, each well was washed five times with 300 μL of PBST, and 100 μL of TMB substrate (Huzhou InnoReagents Co., Ltd., TMB-S-004) was added to each well for color development for 5-20 min. 50 μL of 2 N HCl was added to each well to stop the reaction, and OD450 nm values were read using a microplate reader (manufacturer: MD, model: SpectraMax) and imported into GraphPad software for fitting and plotting to determine the binding of the samples to TF antigenic proteins.

human TF-His [2] = biological target: T1, human TF-His; experiment: ELISA, plate coated with h.TF-His
Procedure: as §1
(§2) The assay was performed as described in the general methods. Briefly, an ELISA plate coated with a human TF-his protein or a cynomolgus monkey TF-his protein was blocked with 2% BSA at 37° C. for 2 h, and each of the antibodies obtained by the gradient dilution (starting at 10 μg/mL, 3-fold graded dilution, 11 concentration points) was added. The plate was incubated at 37° C. for 2 h.

cynomolgus monkey TF-His [3] = biological target: T2, cynomolgus monkey TF-His (cynomolgus monkey, UniProt A0A2K5VX02 33-253); experiment: BLI (ForteBio Octet), antibody on ProA sensor, TF-His as analyte
T2 construct: range 33-252; Recombinant extracellular segment expressed in HEK293-EBNA cells and purified on a nickel column; also called c.TF-His; c; TF-his; not shown: His tag from vector pTT5-His
T2 sequence: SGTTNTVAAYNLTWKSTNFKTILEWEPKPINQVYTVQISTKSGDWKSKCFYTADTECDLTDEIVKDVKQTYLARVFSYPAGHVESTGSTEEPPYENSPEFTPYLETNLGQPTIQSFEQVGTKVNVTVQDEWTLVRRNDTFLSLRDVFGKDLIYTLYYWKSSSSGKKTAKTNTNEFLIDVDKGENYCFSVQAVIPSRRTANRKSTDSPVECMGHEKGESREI
Procedure: (§3) The dynamic affinity of the humanized antibodies was determined by ForteBio. The experimental procedures were as follows: a ProA sensor (18-5010, Octet) was taken out and pre-wetted with a PBST diluent (pH 7.4) for 10 min. The antibodies to be immobilized were diluted to 5 μg/mL. […] The program was set up, the sensor plate and sample plate were put in, then the program started. The sensor was regenerated with 20 mM glycine solution (pH 1.7). The data were analyzed using Octet analysis software to derive a result graph.

human TF-His [4] = biological target: T1, human TF-His; experiment: as above
Procedure: as §3

[5] = biological target: T3, tissue factor (TF) on the surface of TF-positive tumor cells (human, UniProt P13726 33-295); experiment: flow cytometry on NCI-H358 cells
T3 construct: whole, on cells; The cell line used is named under assay or readout in each row; also called TF on NCI-H358 cells; TF on KYSE520 cells
Procedure: (§4) A TF low/medium-expressing cell line NCI-H358 (source: Nanjing Cobioer, CBP60136) and a TF high-expressing cell line KYSE520 (source: Nanjing Cobioer, CBP60658) were digested with trypsin, collected by centrifugation, and washed three times with pre-cooled PBS. The cells were resuspended in 1% BSA and seeded into a 96-well sharp-bottom plate at 3×10⁵ cells/well. Each of the antibodies obtained by the gradient dilution was added, and the plate was incubated at 4° C. for 1 h. The cells were washed three times with pre-cooled PBS. 1 μL of anti-human fluorescent secondary antibody (APC anti-human IgG Fc Antibody, Biolegend, 410712) was added to each well, and the plate was incubated at 4° C. for 0.5 h. The cells were washed three times with pre-cooled PBS, resuspended, and detected by a flow cytometer (Sony, LE-SA3800GA). The data were imported into GraphPad software for curve fitting.

human TF-His [6] = biological target: T1, human TF-His; experiment: antigenic protein-based ELISA, before conjugation (TF antigen species not stated)
Procedure: as §1

[7] = biological target: T3, tissue factor (TF) on the surface of …; experiment: flow cytometry on KYSE520 cells
Procedure: as §4

[8] = biological target: T3, tissue factor (TF) on the surface of …; experiment: cell ELISA on fixed NCI-H358 cells
Procedure: TF antigen-positive cells (MDA-MB-231 or NCI-H358 cells) were seeded into a 96-well plate at 5×10⁴ cells/well one day prior to the experiment. On the day of the experiment, the culture supernatant was removed, each well was washed once with 300 μL of PBS, and 100 μL of 4% paraformaldehyde was added to each well for immobilization at room temperature for 20 min. The paraformaldehyde was removed, and each well was washed twice with 300 μL of PBS, and 100 μL of 2% BSA in PBS was added to each well for blocking at 37° C. for 2 h. After the blocking was completed, 30 μL of the test sample (hybridoma supernatant or purified antibody) was added to each well and the plate was incubated at 37° C. for 2 h. The liquid was removed, and each well was washed three times with 300 μL of PBST. 100 μL of HRP-conjugated secondary antibody in 2% BSA was added to each well, and the plate was incubated at 37° C. for 1 h. […] The secondary antibody was removed, each well was washed five times with 300 μL of PBST, and 100 μL of TMB substrate (Huzhou InnoReagents Co., Ltd., TMB-S-004) was added to each well for color development for 5-20 min. 50 μL of 2 N HCl was added to each well to stop the reaction, and OD450 nm values were read using a microplate reader (manufacturer: MD, model: SpectraMax) to determine the binding of the samples to TF-positive cells.
The assay was performed as described in the general methods. Briefly, TF antigen-positive NCI-H358 cells were digested with trypsin, collected, seeded into a 96-well plate at 5×10⁴ cells/well and incubated overnight, and then immobilized with 4% paraformaldehyde. After the paraformaldehyde was removed and the cells were washed with PBS, the plate was blocked with 2% BSA at 37° C. for 2 h. Each of the antibodies obtained by the gradient dilution (starting at 10 μg/mL, 3-fold graded dilution, 11 concentration points) was added. The plate was incubated at 37° C. for 2 h.

[9] = biological target: T3, tissue factor (TF) on the surface of …; experiment: cell-based or functional assay
cynomolgus monkey TF-His [10] = biological target: T2, cynomolgus monkey TF-His; experiment: ELISA, plate coated with c.TF-His
Procedure: as §1, §2

[11] = biological target: T3, tissue factor (TF) on the surface of …; experiment: cell-based or functional assay; remark: listed apart in the source
[12] = biological target: T3, tissue factor (TF) on the surface of …; experiment: cell-based or functional assay; remark: listed apart in the source

B1: 27H8H3-hz1-B81 (antibody, human IgG1, kappa, V domains shown)
VH: QVQLVQSGAEVKKPGASVKVSCKASGYTFTTYWMHWVRQAPGQGLEWMGMIDPSDSYTSYAQKFQGRVTLTVDTSTSTAYMELSSLRSEDTAVYYCTRGSGPGLFAYWGQGTLVTVSS
VL: DIQETQSPSSLSASVGDRVTITCRASQGISNYLNWYQQKPGKAPKLLIYHTSRLHSGVPSRFSGSVSGTDFTLTISSLQPEDFATYFCQQGNTLPYTFGQGTKVEIKR
modifications: drug-linker DL-01 (B81) on cysteine sulfhydryl group; prepared by the TF-ADC (DAR8) method (1 toxin molecule per light chain); drug-linker DL-01 (B81) on cysteine sulfhydryl groups; prepared by the TF-ADC (DAR8) method (3 toxin molecules per heavy chain)
EC50 (human TF-His [1]): 3.43 ng/mL

B2: 22F11H5-hz1-B81 (antibody, human IgG1, kappa, V domains shown)
VH: B1 VH with K13Q, S59T, T97A
VL: B1 VL with G28D, S30R, H55Q, V66G, F71Y, F87Y, T93M, L94P
modifications: drug-linker DL-01 (B81) on cysteine sulfhydryl group; prepared by the TF-ADC (DAR8) method (1 toxin molecule per light chain); drug-linker DL-01 (B81) on cysteine sulfhydryl groups; prepared by the TF-ADC (DAR8) method (3 toxin molecules per heavy chain)
EC50 (human TF-His [1]): 8.83 ng/mL

B3: 2B12B10-hz1 (antibody, human IgG1, kappa, V domains shown)
VH: EVQLVESGGGLVQPGGSLRLSCAASGFAFSDSGMHWVRQAPGKGLEWVAYISRDSNTIYYADSVKGRFTISRDNAKNSLYLQMNSLRAEDTAVYYCGRRYYGDYFDYWGQGTLVTVSS
VL: DIVLTQSPATLSLSPGERATLSCRASQRVTNYLHWYQQKPGQSPRLLIKYASQSISGIPARFSGSGSGTDFTLTISSLEPEDFAVYFCQQSYNWPLTFGQGTKVEIKR
notes: Humanized IgG1 kappa
EC50 (human TF-His [2]): 6.72 ng/mL
Kd (cynomolgus monkey TF-His [3]): 33.8 nM
koff (cynomolgus monkey TF-His [3]): 0.0116 s⁻¹
kon (cynomolgus monkey TF-His [3]): 344000 M⁻¹ s⁻¹
Kd (human TF-His [4]): 13.8 nM
koff (human TF-His [4]): 0.00289 s⁻¹
kon (human TF-His [4]): 209000 M⁻¹ s⁻¹
EC50 [5]: 187 ng/mL
EC50 (human TF-His [6]): 6.65 ng/mL
EC50 [7]: 140 ng/mL
EC50 [8]: 3.88 ng/mL
IC50 (ng/mL), inhibition of FVIIa-induced IL-8 release by MDA-MB-231 cells [9]: 128 ng/mL
Maximum inhibition rate (%), FVIIa-induced IL-8 release by MDA-MB-231 cells [9]: 94.1%
EC50 (cynomolgus monkey TF-His [10]): 13.6 ng/mL
Endocytosis rate (%) on NCI-H358 cells, 2 h [11]: 34.3%
Endocytosis rate (%) on NCI-H358 cells, 4 h [11]: 49.6%
coagulation time V50 (s), MDA-MB-231 cells + human plasma, 2 mM Ca2+, 50 µg/mL antibody [12]: 882 s
coagulation time V50 (s), MDA-MB-231 cells + human plasma, 5 mM Ca2+, 20 µg/mL antibody [12]: 24.2 s

B4: 30G11B7-hz1 (antibody, human IgG1, kappa, V domains shown)
VH: B3 VH with Q13K, A28T, S32Y, H35F, D54G, N56T, Y95F, G97T
VL: EIVLTQSPDFQSVTPKEKVTITCRASQSISNYLHWYQQKPDQSPKLLIKYASQSISGVPSRFSGSGSGTDFTLTINSLEAEDAATYFCQQSYNWPLTFGQGTKVEIKR
notes: Humanized IgG1 kappa
EC50 (human TF-His [2]): 7.91 ng/mL
Kd (cynomolgus monkey TF-His [3]): 146 nM
koff (cynomolgus monkey TF-His [3]): 0.053 s⁻¹
kon (cynomolgus monkey TF-His [3]): 364000 M⁻¹ s⁻¹
Kd (human TF-His [4]): 25.8 nM
koff (human TF-His [4]): 0.00506 s⁻¹
kon (human TF-His [4]): 197000 M⁻¹ s⁻¹
EC50 [5]: 145 ng/mL
EC50 (human TF-His [6]): 7.68 ng/mL
EC50 [7]: 138 ng/mL
EC50 [8]: 4.73 ng/mL
IC50 (ng/mL), inhibition of FVIIa-induced IL-8 release by MDA-MB-231 cells [9]: 129 ng/mL
Maximum inhibition rate (%), FVIIa-induced IL-8 release by MDA-MB-231 cells [9]: 100%
EC50 (cynomolgus monkey TF-His [10]): 20.8 ng/mL
Endocytosis rate (%) on NCI-H358 cells, 2 h [11]: 19.8%
Endocytosis rate (%) on NCI-H358 cells, 4 h [11]: 46.1%
coagulation time V50 (s), MDA-MB-231 cells + human plasma, 2 mM Ca2+, 50 µg/mL antibody [12]: 1450 s
coagulation time V50 (s), MDA-MB-231 cells + human plasma, 5 mM Ca2+, 20 µg/mL antibody [12]: 29.2 s

B5: 30G11B7-hz1-B81 (antibody, human IgG1, kappa, V domains shown)
VH: B3 VH with Q13K, A28T, S32Y, H35F, D54G, N56T, Y95F, G97T
VL: B4 VL
modifications: drug-linker DL-01 (B81) on cysteine sulfhydryl group; prepared by the TF-ADC (DAR8) method (1 toxin molecule per light chain); drug-linker DL-01 (B81) on cysteine sulfhydryl groups; prepared by the TF-ADC (DAR8) method (3 toxin molecules per heavy chain)
EC50 (human TF-His [1]): 7.75 ng/mL

B6: 2B12B10-hz1-B81 (antibody, human IgG1, kappa, V domains shown)
VH: B3 VH
VL: B3 VL
modifications: drug-linker DL-01 (B81) on cysteine sulfhydryl group; prepared by the TF-ADC (DAR8) method (1 toxin molecule per light chain); drug-linker DL-01 (B81) on cysteine sulfhydryl groups; prepared by the TF-ADC (DAR8) method (3 toxin molecules per heavy chain)
notes: also called 2B12B10-B81
EC50 (human TF-His [1]): 3.76 ng/mL
